Key:
Conditions in all cases: EMSA: 20 mM phosphate pH 8.0, 100 mM NaCl, 5% glycerol, with or without TX-100, 0.1 nM 32P-DNA, 20 min on ice, 6% native PAGE
[1] = target: T1, rSarA (Staphylococcus aureus) (UniProt A6QES8); test: DNase I footprinting
T1 sequence: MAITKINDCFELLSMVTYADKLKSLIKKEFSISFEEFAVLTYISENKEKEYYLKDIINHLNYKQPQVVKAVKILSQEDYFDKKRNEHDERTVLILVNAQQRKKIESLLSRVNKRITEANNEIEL

[2] = test system: rSarA (Staphylococcus aureus); test: EMSA
[3] = test system: rSarA (Staphylococcus aureus); test: EMSA; remark: listed apart in the source
[4] = test system: C9W (rSarA C9W) (Staphylococcus aureus); test: EMSA
[5] = test system: rSarA (Staphylococcus aureus); test: EMSA; remark: listed apart in the source
[6] = test system: C9W (rSarA C9W) (Staphylococcus aureus); test: EMSA; remark: listed apart in the source
[7] = test system: rSarA (Staphylococcus aureus); test: EMSA; remark: listed apart in the source
[8] = test system: C9W (rSarA C9W) (Staphylococcus aureus); test: EMSA; remark: listed apart in the source
[9] = test system: C9W (rSarA C9W) (Staphylococcus aureus); test: EMSA; remark: listed apart in the source

Substance | binding [1] | Kd [2] | Kd [3] | Kd [4] | Kd [5] | Kd [6] | Kd [7] | Kd [8] | Kd [9]
CTATTAGATATTTCTATGTAATGGCAAAATTTATTCCCGACGAAATTCCAAACATAATTAATACCCTTTTTCTCTATTTCTATTTATTAATTTACACTAGTTAATATATAGTTAATTTTTATTTAATAGTTAATTAATTGATTTAATTCTAAGATATTTGTATTTTTATATTGTAATCGATTACATTTTTAAATCAAACAAATCATTAGTTTTAAAGAAATTAATCAATAAAATTAGCTATGT (double strand) [hla promoter DNA, bottom strand labelled (footprinting)] | binds |  |  |  |  |  |  |  | 
hla promoter DNA |  | 50 nM | 20 nM | 58 nM | 35 nM | 60 nM | 364 nM | 398 nM | 97 nM

Source: article PMC4798592
